Reference: patent publication US20170088602A1 (Bristol-Myers Squibb, published 2017)

Legend:
[1] = target: T1, human myostatin (mature, recombinant; R&D Systems) (human, UniProt O14793 267-375); assay: SPR format A, 25C
T1 construct: biotinylated in the mRNA display selection; also called GDF-8; mature myostatin
T1 sequence: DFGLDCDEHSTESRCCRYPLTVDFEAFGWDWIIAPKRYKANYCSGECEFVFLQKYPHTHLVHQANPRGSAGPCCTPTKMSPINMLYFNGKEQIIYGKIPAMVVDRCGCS
Source text: (§1) Anti-human Fc antibody (Biacore/GE) was immobilized on a Biacore CM5 chip via NHS/EDC coupling according to the manufacturer's instructions. […] A concentration range of anti-myostatin Adnectin was applied across all flow cells in HBSP running buffer. Regeneration of the chip surface between cycles was accomplished with two 30 second pulses of 3M MgCl₂. Kinetic traces of reference-subtracted sensorgrams were fit to a 1:1 binding model using Biaevaluation software.

[2] = target: T2, human BMP-11 (GDF-11; R&D Systems) (human, UniProt O95390 299-407); assay: SPR format A, 25C
T2 sequence (looked up): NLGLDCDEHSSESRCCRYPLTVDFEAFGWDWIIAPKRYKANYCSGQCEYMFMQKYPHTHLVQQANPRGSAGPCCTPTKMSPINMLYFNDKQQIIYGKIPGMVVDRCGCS
Source text: as §1

[3] = target: T1, human myostatin (mature, recombinant; …); assay: cell-based or functional assay
[4] = target: T2, human BMP-11 (GDF-11; R&D Systems); assay: cell-based or functional assay
[5] = target: T3, human Activin A (R&D Systems) (human, UniProt P08476 311-426); assay: cell-based or functional assay
T3 sequence (looked up): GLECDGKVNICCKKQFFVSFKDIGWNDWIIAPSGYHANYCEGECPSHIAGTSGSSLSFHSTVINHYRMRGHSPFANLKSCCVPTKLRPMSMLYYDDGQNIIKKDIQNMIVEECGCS

[6] = target: T1, human myostatin (mature, recombinant; …); assay: cell-based or functional assay; remark: listed apart in the source
[7] = target: T1, human myostatin (mature, recombinant; …); assay: competitive HTRF (1889E01/myostatin/ActRIIb-Fc sandwich)
Source text: An HTRF assay was used to measure the binding affinities of anti-myostatin Adnectins to myostatin. […] The Eu-W 1024 labeled Streptavidin is used to bind biotinylated 1889E01. […] In the presence of a competitive Adnectin, the HTRF signal decreases.

[8] = target: T1, human myostatin (mature, recombinant; …); assay: cell-based or functional assay; remark: listed apart in the source
[9] = target: T1, human myostatin (mature, recombinant; …); assay: competitive HTRF, alanine scan

Binder	Kd [1] [nM]	Kd [2] [nM]	ARE-luciferase IC50 [3] [nM]	ARE-luciferase IC50 [4] [nM]	ARE-luciferase IC50 [5] [nM]	pSmad2 IC50, 12-point [6] [nM]	IC50 [7] [nM]	pSmad2 IC50, 4-point [6] [nM]	Myostatin ARE-luc IC50 [8] [nM]	IC50 [9] [nM]
2522_C09 (designed binder) MGVSDVPRDLEVVAATPTSLLISWEVPRGLARYYRITYGETGGNSPVQEFTVLGRGSTATISGLKPGVDYTITVYAVTVYRDGPLLLAPISINYRTEIDKPSQHHHHHH	0.51	0.45	0.06	1.6	1000	0.13	–	–	–	–
2524_D09 (designed binder) MGVSDVPRDLEVVAATPTSLLISWYLPYPAHMNYYRITYGETGGNSPVQEFTVPGRGLTATISGLKPGVDYTITVYAVTLTKSQILHHRPISINYRTEIDKPSQHHHHHH	0.64	0.81	0.06	0.55	84	0.11	–	–	–	–
2525_D02 (designed binder) MGVSDVPRDLEVVAATPTSLLISWTLPHAGRAHYYRITYGETGGNSPVQEFTVPGRGVTATISGLKPGVDYTITVYAVTVTTTSVILYKPISINYRTEIDKPSQHHHHHH	0.24	0.3	0.05	1.1	345	0.36	–	–	–	–
2987_H07 (designed binder) MGVSDVPRDLEVVAATPTSLLISWTLPHAGRAHYYRITYGETGGNSPVQEFTVPGRGVTATISGLKPGVDYTITVYAVTVTTTKVIHYKPISINYRTEIDKPSQHHHHHH	0.99	2.25	0.02	5.5	> 400	–	–	–	–	–
2525_F07 (designed binder) MGVSDVPRDLEVVAATPTSLLISWSLPYAAHMNYYRITYGETGGNSPVQEFTVPGRGVTATISGLKPGVDYTITVYAVTLTRSQVIHYMPISINYRTEIDKPSQHHHHHH	0.79	0.97	0.13	3.4	> 1000	0.27	–	–	–	–
2525_B01 (designed binder) MGVSDVPRDLEVVAATPTSLLISWTLPNFGLINYYRITYGETGGNSPVQEFTVPGRGVTATISGLKPGVDYTITVYAVTITKSTIIIYKPISINYRTEIDKPSQHHHHHH	1.29	1.58	0.11	3.2	73	0.14	–	–	–	–
2524_H05 (designed binder) MGVSDVPRDLEVVAATPTSLLISWSLPYSGLANYYRITYGETGGNSPVQEFTVPGRGVTATISGLKPGVDYTITVYAVTLTHSNIIRYVPISINYRTEIDKPSQHHHHHH	0.88	0.87	0.09	7.3	> 1000	0.13	–	–	–	–
ATI-1275 [N-ethylmaleimide] (designed binder, N-ethylmaleimide on the Cys of the EGSGC tail, cysteine mutant of 2524_D09) MGVSDVPRDLEVVAATPTSLLISWYLPYPAHMNYYRITYGETGGNSPVQEFTVPGRGLTATISGLKPGVDYTITVYAVTLTKSQILHHRPISINYRTEGSGCHHHHHH	0.15	0.15	0.03	0.14	19	–	0.19	–	–	–
ATI-1277 [N-ethylmaleimide] (designed binder, N-ethylmaleimide on the Cys of the EGSGC tail, cysteine mutant of 2525_D05) MGVSDVPRDLEVVAATPTSLLISWSLPYAGHLNYYRITYGETGGNSPVQEFTVPGRGVTATISGLKPGVDYTITVYAVTLTKSQLIHYMPISINYRTEGSGCHHHHHH	0.16	0.14	0.14	1.18	2000	–	0.38	–	–	–
3116_A06 (designed binder, also called WT parent) MGVSDVPRDLEVVAATPTSLLISWSLPHQGKANYYRITYGETGGNSPVQEFTVPGRGVTATISGLKPGVDYTITVYAVTVTDTGYLKYKPISINYRTEIDKPSQHHHHHH	–	–	0.14	13	> 1000	–	0.15	0.27	0.6	0.3
3116_A06 T83A (designed binder) MGVSDVPRDLEVVAATPTSLLISWSLPHQGKANYYRITYGETGGNSPVQEFTVPGRGVTATISGLKPGVDYTITVYAVTVTDAGYLKYKPISINYRTEIDKPSQHHHHHH	–	–	–	–	–	–	–	–	1.8	1.3
3116_A06 K89A (designed binder) MGVSDVPRDLEVVAATPTSLLISWSLPHQGKANYYRITYGETGGNSPVQEFTVPGRGVTATISGLKPGVDYTITVYAVTVTDTGYLKYAPISINYRTEIDKPSQHHHHHH	–	–	–	–	–	–	–	–	1.6	0.7
3116_A06 G84A (designed binder) MGVSDVPRDLEVVAATPTSLLISWSLPHQGKANYYRITYGETGGNSPVQEFTVPGRGVTATISGLKPGVDYTITVYAVTVTDTAYLKYKPISINYRTEIDKPSQHHHHHH	–	–	–	–	–	–	–	–	3.6	2
3116_A06 K31A (designed binder) MGVSDVPRDLEVVAATPTSLLISWSLPHQGAANYYRITYGETGGNSPVQEFTVPGRGVTATISGLKPGVDYTITVYAVTVTDTGYLKYKPISINYRTEIDKPSQHHHHHH	–	–	–	–	–	–	–	–	2.2	0.6
3116_A06 G57A (designed binder) MGVSDVPRDLEVVAATPTSLLISWSLPHQGKANYYRITYGETGGNSPVQEFTVPGRAVTATISGLKPGVDYTITVYAVTVTDTGYLKYKPISINYRTEIDKPSQHHHHHH	–	–	–	–	–	–	–	–	> 100	> 100
3116_A06 V58A (designed binder) MGVSDVPRDLEVVAATPTSLLISWSLPHQGKANYYRITYGETGGNSPVQEFTVPGRGATATISGLKPGVDYTITVYAVTVTDTGYLKYKPISINYRTEIDKPSQHHHHHH	–	–	–	–	–	–	–	–	3.3	1.6
3116_A06 K87A (designed binder) MGVSDVPRDLEVVAATPTSLLISWSLPHQGKANYYRITYGETGGNSPVQEFTVPGRGVTATISGLKPGVDYTITVYAVTVTDTGYLAYKPISINYRTEIDKPSQHHHHHH	–	–	–	–	–	–	–	–	2	0.8
3116_A06 Q29A (designed binder) MGVSDVPRDLEVVAATPTSLLISWSLPHAGKANYYRITYGETGGNSPVQEFTVPGRGVTATISGLKPGVDYTITVYAVTVTDTGYLKYKPISINYRTEIDKPSQHHHHHH	–	–	–	–	–	–	–	–	1.5	0.7
3116_A06 G55A (designed binder) MGVSDVPRDLEVVAATPTSLLISWSLPHQGKANYYRITYGETGGNSPVQEFTVPARGVTATISGLKPGVDYTITVYAVTVTDTGYLKYKPISINYRTEIDKPSQHHHHHH	–	–	–	–	–	–	–	–	> 100	> 100
3116_A06 S25A (designed binder) MGVSDVPRDLEVVAATPTSLLISWALPHQGKANYYRITYGETGGNSPVQEFTVPGRGVTATISGLKPGVDYTITVYAVTVTDTGYLKYKPISINYRTEIDKPSQHHHHHH	–	–	–	–	–	–	–	–	2.9	0.8
3116_A06 D82A (designed binder) MGVSDVPRDLEVVAATPTSLLISWSLPHQGKANYYRITYGETGGNSPVQEFTVPGRGVTATISGLKPGVDYTITVYAVTVTATGYLKYKPISINYRTEIDKPSQHHHHHH	–	–	–	–	–	–	–	–	1.8	0.8
ATI-1267 [N-ethylmaleimide] (designed binder, N-ethylmaleimide on the Cys of the EGSGC tail, cysteine mutant of 2525_D02) MGVSDVPRDLEVVAATPTSLLISWTLPHAGRAHYYRITYGETGGNSPVQEFTVPGRGVTATISGLKPGVDYTITVYAVTVTTTSVILYKPISINYRTEGSGCHHHHHH	0.057	0.065	0.06	0.5	644	–	0.12	–	–	–
